PMC8784115 (Proceedings of the National Academy of Sciences of the …, 2022)
One block for each binder: values may come before it. No end group written: not given here. Alexa594 = Alexa594 fluorescent dye

Key:
[1] = molecular target: T1, TAZ1 domain of CREB-binding protein (CBP), mouse CBP residues 340 to 439 (mouse, UniProt P45481 340-439); test: fluorescence polarisation
[2] = molecular target: T1, TAZ1 domain of CREB-binding protein …; test: fluorescence polarisation; remark: listed apart in the source
[3] = molecular target: T1, TAZ1 domain of CREB-binding protein …; test: fluorescence polarisation; remark: listed apart in the source
[4] = molecular target: preformed complex of 15N-TAZ1 and HIF-1α (mouse | human, UniProt P45481 340-439; Q16665 776-826); test: NMR titration
[5] = molecular target: T1, TAZ1 domain of CREB-binding protein …; test: NMR titration

T1 sequence (P45481 340-439): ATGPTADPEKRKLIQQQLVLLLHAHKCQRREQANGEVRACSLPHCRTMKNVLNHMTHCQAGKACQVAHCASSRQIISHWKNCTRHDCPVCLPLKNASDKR
Sequence of preformed complex of 15N-TAZ1 and HIF-1α (P45481 340-439, one chain of several): as the sequence (P45481 340-439) above

- binding result [1]: binds
B1: Alexa594-labeled HIF-1α peptide (C800V, labelled at C780) (peptide)
chain: GSHMSDLAC(Alexa594)RLLGQSMDESGLPQLTSYDVEVNAPIQGSRNLLQGEELLRALDQVN

- binding result [2]: binds
B2: Alexa594-labeled CITED 216-269 peptide (labelled at C261) (peptide)
chain: GSHMSNVIDTDFIDEEVLMSLVIEMGLDRIKELPELWLGQNEFDFMTDFVC(Alexa594)KQQPSRVS

- binding result [3]: binds
B3: Alexa594-labeled CITED APAA peptide (labelled at C261) (peptide)
chain: GSHMSNVIDTDFIDEEVLMSLVIEMGLDRIKEAPAAWLGQNEFDFMTDFVC(Alexa594)KQQPSRVS

- binding result [4]: binds
- binding result [5]: binds
B4: CITED APAA peptide (CITED2 216-269 with the nonproline residues of the LPEL motif mutated to alanine) (peptide)
chain: GSHMSNVIDTDFIDEEVLMSLVIEMGLDRIKEAPAAWLGQNEFDFMTDFVCKQQPSRVS
